Results as given in doi:10.1101/2023.01.23.525191, “Mechanism of an alternative splicing switch mediated by cell-specific and general splicing regulators” (bioRxiv, 2023).

Columns and labels:
[1] = biological target: the molecule itself; assay: AUC; sedimentation velocity, 500 mM KCl, 20 mM HEPES, 1 mM TCEP, pH 7.9, 20 °C; FL 0.46 and ΔC20 0.57 mg/ml as printed; dimers and higher-order oligomers
[2] = biological target: the molecule itself; assay: SEC; size exclusion chromatography of recombinant untagged protein; dimer and higher-order assemblies

B1: recombinant untagged full length rat RBPMS-A (natural protein)
chain: not shown
notes: RBPMS isoform A (RBPMS-A), rat, cDNA NCBI XM_006253240.2, full length open reading frame; it may be the rat protein; Exists as a mixture of dimers and higher-order oligomers; also called FL RBPMS; FL; source: E. coli BL21 (DE3), purified (Histrap, TEV cleavage, mono Q, Superdex 200); not shown: His6, N-terminal, cleaved
- stoichiometry N [1]: ~21
- stoichiometry N [2]: 2
